Data as given in PMC6172466.

Biological target: FlAsH-tagged K63-linked diubiquitin (UniProt P0CG48)
Experiment: fluorescence polarisation; FlAsH-tagged K63-linked diUb (diluted to 80 nM, mixed 1:1) with serially diluted OTUD1; 50 mM Tris, 50 mM NaCl, 0.1% β-mercaptoethanol, pH 7.6; room temperature, 1 h

Kd: 40 µM
B1: OTUD1 catalytic domain (residues 287-435) C320A (domain or fragment)
chain: DEKLALYLAEVEKQDKYLRQRNKYRFHIIPDGNALYRAVSKTVYGDQSLHRELREQTVHYIADHLDHFSPLIEGDVGEFIIAAAQDGAWAGYPELLAMGQMLNVNIHLTTGGRLESPTVSTMIHYLGPEDSLRPSIWLSWLSNGHYDAV
